Positions count from the first letter of the chain named. Names and notes keep the numbering of the source.

Substrate in the series: O=C(O)[C@@H]1CCC=N1
Briefly: purified protein. The format is biochemical, Geobacter sulfurreducens. The following applies: GSALDH site; NAD+ fixed at saturating concentration; L-P5C 0-3.5 mM.

B1: GsPutA (Geobacter sulfurreducens PCA) (protein)
chain: MLNSELNTKIVNRGKEFFGSISGEKPSLFNKGAWMGKAMDWSMQNEQFKIQMFRFVDVFPSLTTSKLLTEHIREYFGNEQDMPAFMSTGAKVAGMLGSFGGAVLNKVLTSNIEEMARQFIVGETTKEAVKNLEKLRKDGFAAVVDVLGEATLSEEEAEVYTNTYLELLEALKKEQGSWKGLPGKGGDPGLDWGHAPKVNIAVKPTALFCLANPQDFEGSVVAILDRMRRIFKKVMELNGFLCIDMESYRHKEIILEVFRRLKLEYRDYPHLGIVLQAYLKDNDKDLDDLLAWAKEHKVQISVRLVKGAYWDYETVKAKQNDWEVPVWTIKAESDAAYERQARKILENHQICHFACASHNIRTISAVMEMARELNVPEDRYEFQVLYGMAEPVRKGILKVAGRIRLYAPYGNMVPGMGYLVRRLLENTANESFLRQSFAEDAQIERLLEDPAVTVERERAARAAKPKKERKGLGGLPPFNNEAMVDFTRADHRAAFPKHIAQVRTQLGKTYPLFINGKEVRTNDLIPTVNPNKPSEVLGQICQAGTTEVGDAIAAAKAAFPAWRDTDPRTRAEYLLKAAQAARKRLFELSAWQVLEIGKQWDQAYADVTEAIDFLEYYAREMIRLGQPQRVGHAPGELNHYFYEPKGVAAVIAPWNFPLAISMGMASAAIVTGNCVVFKPSGITSIIGWHLVELFREAGLPEGVFNFTPGRGSVMGDYLVDHPDISLIAFTGSMETGLRIIERAAKVHPGQANVKKIISEMGGKNAIIIDDDADLDEAVPHVLYSAFGFQGQKCSACSRVIVLDAVYDKFIERLVSMAKATKVGPSEDPANYMGAVADDKAMKSIKEYAEIGKREGHVLYESPVPAGEGYFVPMTIIGGIKPEHRIAQEEIFGPVLAVMRAKDFDQAIEWANSTQFALTGGIFSRSPEHLAKARREFRVGNLYINRNNTGALVERQPFGGARMSGVGTKAGGPDYLLHFMDPRVVTENTMRRGFAPIEEDDDWVD
As usually defined, the Km is the substrate concentration at which the rate is half of its maximum. As a reminder, the kcat is the number of substrate molecules converted per active site and unit of time at saturation. As to B1, the Km came out at 30.0 ± 13.0 µM and the turnover number (kcat) stood at 4.7 ± 0.2 s⁻¹.

B2: GsPutA (Geobacter sulfurreducens PCA; A206W) (protein)
chain: B1 chain with A206W
Turning to B2, the Km worked out at 65.0 ± 18.3 µM and the kcat was found to be 6.0 ± 0.2 s⁻¹.

The values above are taken from paper PMC8559791.
